The record followed here is patent US20240158494A1 (Biogen, published 2024).

B1: TfR1 ANTIBODY-A HC-H4C hIgG1 Fab′(1C)/LC-L1 hKappa (Fab, V domains shown)
VH: QSLVESGGGLVQPGGSLRLSCKASGIDFSSSGYMCWVRQAPGKGLEWVGCIYTYSSNTYYASWAKGRFTISKTSSTTVYLQMNSLKTEDTAVYYCARGTYGYTGYTYTMGYFSLWGPGTLVTVSS
VL: DIQMTQSPSTLSASVGDRVTITCQASQNINSYLAWYQQKPGKAPKLLIYRASTLASGVPSRFSGSGSGTEFTLTISSLQPDDFATYYCQSYYYSGSSNYNAFGGGTKVEIKR
notes: also called ANTIBODY-A H4C/L1
B2: TfR1 ANTIBODY-A HC-H3C hIgG1 Fab′(1C)/LC-L0 hKappa (Fab, V domains shown)
VH: B1 VH with T73D, S75K, T76N, T77S
VL: B1 VL with T53S, A55E
notes: also called ANTIBODY-A H3C/L0; TfRANTIBODY-A HC-H3C hIgG1Fab′(1C)/LC-L0 hKappa
B3: TfR1 ANTIBODY-A HC-H3C hIgG1 Fab′(1C)/LC-L1 hKappa (Fab, V domains shown)
VH: B1 VH with T73D, S75K, T76N, T77S
VL: B1 VL
notes: also called ANTIBODY-A H3C/L1
B4: TfR1 ANTIBODY-A HC-H2C hIgG1 Fab′(1C)/LC-L1 hKappa (Fab, V domains shown)
VH: B1 VH with K22A, S62A, W63S, A64V, P117Q
VL: B1 VL
notes: also called ANTIBODY-A H2C/L1
B5: TfR1 ANTIBODY-A HC-H4C hIgG1 Fab′(1C)/LC-L0 hKappa (Fab, V domains shown)
VH: B1 VH
VL: B1 VL with T53S, A55E
notes: also called ANTIBODY-A H4C/L0
B6: Rabbit ANTIBODY-A chi Fab (Fab, V domains shown)
VH: QSLEESGGGLVQPGASLTLTCKASGIDFSSSGYMCWVRQAPGKGLEWIGCIYTYSSNTYYASWAKGRFTISKTSSTTVTLQMTSLTAADTATYFCARGTYGYTGYTYTMGYFSLWGPGTLVTVSS
VL: ELDMTQTPASVEAAVGGTVTIKCQASQNINSYLAWYQQKPGQPPKLLIYRASTLASGVPSRFKGSGSGTEFTLTISDLECADAATYYCQSYYYSGSSNYNAFGGGTELEIL
notes: chimeric Fab, rabbit variable regions; constant regions of the Fab not specified (chimeric antibodies were made with a human IgG1 framework); also called chimeric rabbit Fab fragment of RabANTIBODY-A
B7: TfR1 ANTIBODY-B HC-H2 hIgG1 Fab′(1C)/LC-L2 hKappa (Fab, V domains shown)
VH: QSLVESGGGVVQPGRSLRLSCKASGFSFSNSYWIAWVRQAPGKGLEWVAAINTDADSTNYADSVKGRFTISKDSSTTVYLQMNSLRAEDTAVYYCARQNNVFDPGYNLWGQGTLVTVSS
VL: ELVLTQSPSTLSASVGDRVTITCRASQNIGSNLAWYQQKPGKAPKLLIYDASKLESGVPSRFSGSGSGTEFTLTISSLQPDDFATYYCQCTVRGGAYGNAFGGGTKVEIKR
notes: also called ANTIBODY-B H2/L2
B8: TfR1 ANTIBODY-B HC-H0C hIgG1 Fab′(1C)/LC-L2 hKappa (Fab, V domains shown)
VH: QVQLVESGGGVVQPGRSLRLSCAASGFSFSNSYWICWVRQAPGKGLEWVGCINTDADSTNYADSVKGRFTISRDNSKNTLYLQMNSLRAEDTAVYYCARQNNVFDPGYNLWGQGTLVTVSS
VL: B7 VL
notes: also called ANTIBODY-B H0C/L2
B9: Rabbit ANTIBODY-B chi Fab (Fab, V domains shown)
VH: QSLEESGGGLVQPEGSLTLTCKASGFSFSNSYWICWVRQAPGKGLEWIGCINTDADSTNYASWARGRFTISKTSSTTVTLQMTSLTAADTASYFCARQNNVFDPGYNLWGPGTLVTVSS
VL: ELVLTQTPASVSEAVGGTVTIKCQASQNIGSNLAWYQQKPGQPPKLLIYDASKLASGVPSRFSGSGSGTEFTLTISDLECADAATYYCQCTVRGGAYGNAFGGGTEVVVK
notes: chimeric Fab, rabbit variable regions; constant regions of the Fab not specified (chimeric antibodies were made with a human IgG1 framework); also called chimeric rabbit Fab fragment of RabANTIBODY-B

Positions count from the first letter of the chain named. Numbers in names are those of the source.

Broadly, the EC50 is the concentration needed to bring the measured effect to its halfway point. The Kd is the constant that tells how readily two partners part at equilibrium. The term koff denotes the first-order rate constant of dissociation. The kon is the rate constant with which the complex forms.

For the first test, the target named is T1, cynomolgus monkey transferrin receptor 1 (TfR1), full length, expressed on cells (cynomolgus monkey, UniProt Q5RDH6 1-760 (Pongo abelii entry)).
T1 construct: also called cyno TfR1; cyTfR
Description: FACS on Ba/F3 cells, purified Fab.
The molecule B1 gave an EC50 of 2.4 nM.

For the molecule B2, a half-maximal effect (EC50) was put at 5 nM.

B3 had a concentration for a half-maximal effect (EC50) of 5.5 nM.

Regarding B4, the response was half-maximal at 3.3 nM (EC50).

Consider B5, for which the EC50 came out at 2 nM.

Another test addresses T2, human transferrin receptor 1 (TfR1), full length, expressed on cells (human, UniProt P02786 1-760).
T2 construct: also called human TfR1; huTfR
Description: FACS on Ba/F3 cells, purified Fab.
Molecule B1 came in with a half-maximal effective concentration (EC50) of 1.8 nM.

In turn, B2 gave an EC50 of 1.6 nM.

On to B3, for which a half-maximal effect (EC50) was put at 1.5 nM.

For B4, it took 1.3 nM to reach a half-maximal effect (EC50).

The molecule B5 yielded an EC50 of 1.4 nM.

A further test deals with T3, recombinant cynomolgus monkey TfR1 extracellular domain, His-tagged (cynomolgus monkey, UniProt Q5RDH6 87-760 (Pongo abelii entry)).
T3 construct: also called Cyno TfR1 ECD; cyno TfR1 ECD-His
Description: SPR, TfR1 ECD-His captured, Fab injected, 1:1 fit. A general note: SPR reads the build-up and loss of mass on a sensor chip optically.
For B6, the Kd was 29 nM, the koff amounted to 0.00925 s⁻¹ and the kon came to 317000 M⁻¹ s⁻¹.

B7: the Kd was 8.7 nM, the dissociation rate constant (koff) was 0.00113 s⁻¹ and the kon stood at 129000 M⁻¹ s⁻¹.

With B8, the dissociation constant (Kd) was 6.5 nM, the koff worked out at 0.00136 s⁻¹ and the kon is 210000 M⁻¹ s⁻¹.

For the molecule B1, the dissociation constant Kd turned out to be 2.6 nM, the koff was found to be 0.0114 s⁻¹ and the kon amounted to 4.4e+06 M⁻¹ s⁻¹.

Turning to B2, the Kd was 2.5 nM, the off-rate constant (koff) amounted to 0.0103 s⁻¹ and the kon stood at 4.1e+06 M⁻¹ s⁻¹.

Take B3: the dissociation constant (Kd) came out at 4.1 nM, the dissociation rate constant (koff) is 0.0106 s⁻¹ and the kon worked out at 2.58e+06 M⁻¹ s⁻¹.

For the molecule B4, the Kd was 3 nM, the koff was 0.0195 s⁻¹ and the on-rate (kon) came out at 6.56e+06 M⁻¹ s⁻¹.

Regarding B5, the Kd was 3.3 nM, the koff came to 0.00583 s⁻¹ and the kon came to 1.75e+06 M⁻¹ s⁻¹.

B9: the Kd was determined as 1.5 nM, the koff worked out at 0.000436 s⁻¹ and the kon was 283000 M⁻¹ s⁻¹.

The target of another test is T4, recombinant human TfR1 extracellular domain, His-tagged (human, UniProt P02786 89-760).
T4 construct: also called Human TfR1 ECD; human TfR1 ECD-His
The experiment in a line: SPR, TfR1 ECD-His captured, Fab injected, 1:1 fit.
Consider B6, for which the Kd is 5.2 nM, the off-rate constant (koff) turned out to be 0.00101 s⁻¹ and the association rate constant (kon) was 192000 M⁻¹ s⁻¹.

On to B7, for which the Kd turned out to be 39.4 nM, the koff is 0.00328 s⁻¹ and the kon stood at 83200 M⁻¹ s⁻¹.

Take B8: the Kd came out at 14.1 nM, the off-rate constant (koff) was found to be 0.00343 s⁻¹ and the kon came out at 244000 M⁻¹ s⁻¹.

For B1, the Kd was found to be 0.91 nM, the koff is 0.000894 s⁻¹ and the kon came to 983000 M⁻¹ s⁻¹.

For B2, the Kd stood at 1.4 nM, the koff stood at 0.0012 s⁻¹ and the kon was determined as 835000 M⁻¹ s⁻¹.

For the molecule B3, the dissociation constant Kd was 1.2 nM, the off-rate constant (koff) amounted to 0.00126 s⁻¹ and the kon was found to be 1.02e+06 M⁻¹ s⁻¹.

As for B4, the equilibrium dissociation constant (Kd) was determined as 1.2 nM, the koff was 0.000947 s⁻¹ and the on-rate constant (kon) stood at 773000 M⁻¹ s⁻¹.

Turning to B5, the equilibrium dissociation constant (Kd) was 0.99 nM, the koff amounted to 0.000878 s⁻¹ and the on-rate constant (kon) stood at 887000 M⁻¹ s⁻¹.

In the case of B9, the Kd was 5.8 nM, the koff came out at 0.000573 s⁻¹ and the kon is 99200 M⁻¹ s⁻¹.

Another test has as its target T1, cynomolgus monkey transferrin receptor …. Description: FACS on Ba/F3 cells, Fab supernatant.
With B7, the EC50 was 7.7 nM.

Turning to B8, it took 5.5 nM to reach a half-maximal effect (EC50).

In another test the target is T2, human transferrin receptor 1 (TfR1), …. Description: FACS on Ba/F3 cells, Fab supernatant.
The molecule B7 gave a half-maximal effective concentration (EC50) of 10.2 nM.

Take B8: the EC50 worked out at 9.3 nM.

For the next test, the target named is T1, cynomolgus monkey transferrin receptor …. The experiment in a line: FACS on Ba/F3 cells, Fab supernatant. This is another data set of the same source.
B2 returned a concentration for a half-maximal effect (EC50) of 1.5 nM.

Another test deals with T2, human transferrin receptor 1 (TfR1), …. Description: FACS on Ba/F3 cells, Fab supernatant. The source holds these as a separate data set.
B2: the EC50 was found to be 1.1 nM.

The target of another test is T3, recombinant cynomolgus monkey TfR1 …. The experiment in a line: SPR, TfR1 ECD-His captured, Fab 50 and 500 nM, no transferrin.
For B6, the dissociation constant (Kd) is 43 nM, the koff worked out at 0.01 s⁻¹ and the association rate constant (kon) stood at 230000 M⁻¹ s⁻¹.

Regarding B9, the equilibrium dissociation constant (Kd) came out at 3.8 nM, the koff worked out at 0.00095 s⁻¹ and the association rate constant (kon) turned out to be 250000 M⁻¹ s⁻¹.

The target of another test is T4, recombinant human TfR1 extracellular …. Described as above.
For the molecule B6, the Kd worked out at 7 nM, the koff stood at 0.0012 s⁻¹ and the kon turned out to be 170000 M⁻¹ s⁻¹.

As for B9, the dissociation constant (Kd) was 12 nM, the dissociation rate constant (koff) was found to be 0.0018 s⁻¹ and the kon worked out at 140000 M⁻¹ s⁻¹.

A further test concerns the target T1, cynomolgus monkey transferrin receptor …. The experiment in a line: FACS on Ba/F3 cells, Fab supernatant. This is another data set of the same source.
As to B1, the half-maximal effective concentration (EC50) came to 1.8 nM.

The molecule B2 displayed an EC50 of 2.7 nM.

Regarding B3, the half-maximal effective concentration (EC50) worked out at 4.5 nM.

In the case of B4, the response was half-maximal at 3.3 nM (EC50).

For B5, a half-maximal response (EC50) required 1.8 nM.

In the next test the target is T2, human transferrin receptor 1 (TfR1), …. Description: FACS on Ba/F3 cells, Fab supernatant. The source holds these as a separate data set.
B1 came in with an EC50 of 2.2 nM.

As to B2, the concentration for a half-maximal effect (EC50) worked out at 2.5 nM.

B3 yielded a concentration for a half-maximal effect (EC50) of 2.1 nM.

Take B4: the EC50 came to 2.6 nM.

B5 registered an EC50 of 1.4 nM.

The next test addresses T3, recombinant cynomolgus monkey TfR1 …. Description: SPR, TfR1 ECD-His captured, in the presence of 1 mM holo human transferrin.
For B6, the Kd turned out to be 43 nM, the koff worked out at 0.01 s⁻¹ and the on-rate (kon) worked out at 230000 M⁻¹ s⁻¹.

For the molecule B9, the Kd came out at 3.5 nM, the koff stood at 0.00094 s⁻¹ and the kon is 270000 M⁻¹ s⁻¹.

The next test addresses T4, recombinant human TfR1 extracellular …. The test is described as above.
For the molecule B6, the Kd worked out at 6.8 nM, the off-rate (koff) was 0.0012 s⁻¹ and the kon came to 170000 M⁻¹ s⁻¹.

Regarding B9, the Kd came out at 8.2 nM, the dissociation rate constant (koff) worked out at 0.0015 s⁻¹ and the kon was 180000 M⁻¹ s⁻¹.
